Changes are numbered by the printed parent chain. Names and notes keep the numbering of the source. Where two headings read alike, the source gives them in different places.
How the values were obtained:
[1] = system: isolated rat liver mitochondria; experiment: Hypoxic inhibition of respiration of isolated mitochondria; format: cell-based; settings: for inhibition of respiration, incubated alone (in words): nitrite 20 μM or protein 5 μM alone; for inhibition of respiration (cyanide = 100%): 5 μM protein with 20 μM nitrite, hypoxia
Procedure: (§1) Mitochondria were isolated from the livers of male Sprague Dawley rats and incubated with wild-type or mutant Ngb proteins in a sealed, stirred chamber at 37° C. State 3 respiration was stimulated with succinate (15 mM) and ADP (1 mM) and oxygen consumption was measured with a Clark-type oxygen electrode. To measure inhibition of respiration in hypoxic conditions, respiring mitochondria were allowed to consume oxygen until the chamber became anoxic and then the chamber lid was removed to allow the diffusion of air back into the chamber. The rate of mitochondrial respiration was greater than the rate of oxygen entering the chamber such that the oxygen electrode trace remained at zero while the mitochondria were respiring. Nitrite was added to the chamber prior to the removal of the lid and deviation of the oxygen trace from a zero reading signified a decrease in respiration rate. All experiments were performed under conditions where substrates were not limiting. The extent of respiratory inhibition was quantified by measuring the time from equilibration of the mitochondria with air to the time when the oxygen trace deviated from zero. This time to inhibition was expressed as a percentage of maximal inhibition, where 100% inhibition was defined as the time to inhibition in the presence of cyanide and the time to the exhaustion of substrates was used as a measure of 0% inhibition. Similar experiments were performed with SHSY5Y cells suspended in the respirometer and treated with the uncoupler FCCP (5 μM) to measure hypoxic inhibition of cellular respiration.

[2] = Anaerobic reaction of deoxygenated globins with excess nitrite (nitrite reductase kinetics, absorption / stopped-flow spectroscopy); format: biochemical; settings: for relative percentage of the total absorbance change (Soret peak 425 nm) in the first 60 minutes: 0.1 M HEPES pH 7.4, H64L-Ngb normalized to 100%; for rate of nitrite reduction (in words): cysteine to alanine mutants
Procedure: Oxygen contamination was prevented by application of positive argon pressure without a channel for gas escape. Concentrations of single species during reactions were determined by least squares deconvolution of the visible absorption spectrum into standard reference spectra using Microsoft Excel analysis. OxyNgb was included to confirm successful deoxygenation before the reaction. […] Fast kinetic studies were performed using an Applied Photophysics DX-17 stopped-flow instrument equipped with rapid-scanning diode array detection. […] To determine bimolecular rate constants all reactions were analyzed with Pro-K software (Applied Photophysics) using singular value decomposition followed by fitting of the reduced data matrix to a pseudo-first order kinetic model.

[3] = cited from earlier work
[4] = nitrite 7-230 μM; cited from earlier work
[5] = cited from earlier work; remark: listed apart in the source
[6] = Determination of nitrite binding constants to met-Ngb (difference spectra titration); settings: met-Ngb 10 μM, 200 mM phosphate buffer, pH 7.4, 25° C.; read-out: Kd (NO2^−)
Procedure: To determine the binding constant of nitrite to metNgb, 10 μM wild type and mutant Ngb in 200 mM phosphate buffer, pH 7.4, were incubated in a cuvette at 25° C. with increasing concentrations of nitrite and the UV—visible spectra were recorded after each increase in nitrite concentration. The constant KD for each protein was determined by interpolation of the absorbance data following procedures in Nicolis et al. (Biochem J 407:89-99, 2007).

[7] = Midpoint redox potential of the thiol/disulfide couple in Ngb (GSH/GSSG gradient, Nernst fit of kobs); format: physicochemical; settings: 37° C., 0.1 M phosphate buffer pH 7.0, GSH/GSSG
Procedure: Wild-type and C55A mutant Ngb (50-60 μM) were incubated at 37° C. in anaerobic glove box with solutions containing various ratios of reduced (GSH) and oxidized (GSSG) glutathione, with the total GSH and GSSG concentration fixed at 25 mM in 0.1 M phosphate buffer pH=7.0. The GSH/GSSG ratio was varied to establish a gradient of redox potentials between −130 and −250 mV, calculated by the Nernst equation according to a midpoint reduction potential of −240 mV (Yi et al., J Biol Chem 284:20556-20561, 2009). After at least 1 hour incubation, glutathione was removed by passage through a G25 column and Ngb was reacted immediately with 10 mM nitrite in 0.1 M phosphate buffer pH=7.0 as described above. The observed rate constant determined at each glutathione ratio was fitted using the Nernst equation and the midpoint reduction potential of the thiol/disulfide couple of Ngb calculated.

SHSY5Y cells = experiment: Hypoxic inhibition of cellular respiration in SHSY5Y cells expressing Ngb; format: cell-based; settings: cells stably transfected with GFP-tagged Ngb, nitrite added, FCCP
Procedure: as §1, with “Similar experiments were performed with SHSY5Y cells suspended in the respirometer and treated with the uncoupler FCCP (5 μM) to measure hypoxic inhibition of cellular respiration.” left out

[8] = Reaction of met-Ngb with nitrite to produce nitrosyl-Ngb (nitrite ferric heme reduction); format: biochemical; settings: met-Ngb with nitrite in the presence of dithionite
[9] = EPR spectroscopy of iron-nitrosyl-heme formation from nitrite; format: biochemical; settings: 1 mM nitrite; for rate of iron-nitrosyl-Ngb / NO formation by EPR (in words): 40±5 μM protein
Procedure: Iron nitrosyl species were measured by EPR spectroscopy using a Bruker EMX 10/12 spectrometer operating at 9.4 GHz, 5-G modulation, 10.1-milliwatt power, 327.68-ms time constant and 163.84-s scan over 600 G at 110 K as described previously (Basu et al., J Biol Chem 283:32590-32597, 2008; Azarov et al., J. Biol. Chem. 280:[…], 2005). The concentrations of Mb and Ngb species were determined by performing the double integral calculation and comparing to standard samples.

SHSY5Y neuronal cells = experiment: Determination of cGMP in SHSY5Y neuronal cells under hypoxia; format: cell-based; settings: 6 hours hypoxia (1% oxygen), no exogenous nitrite, cells expressing the protein
Procedure: SHSY5Y cells, expressing the GFP vector, wild type Ngb or H64L mutant Ngb were plated on Corning® CellBIND® Surface 100 mm culture dishes at a concentration of 5-7.5×10^5 cells/plate and grown to 80-90% confluence. After four days of growth, the cells were incubated for 6 hours under hypoxic conditions (1% oxygen). Following hypoxic treatment, the cGMP levels were measured using the cyclic GMP EIA Kit (Cayman Chemicals catalog #581021) according to the manufacturer's instructions. Protein levels were measured and used to normalize results.

[10] = Direct measurement of NO release in gas phase (chemiluminescence); format: biochemical; settings: for rate of NO detected in gas phase (in words): 20 μM Ngb, 1 mM nitrite, anaerobic
Text: Once a stable baseline was established Ngb was reacted with a known amount of nitrite as previously described (Huang et al., J Clin Invest 115:2099-2107, 2005).

## O=NO [nitrite, reference compound]
[1]
  inhibition of respiration, incubated alone (in words): No significant inhibition

B1: Myoglobin: horse heart myoglobin, purified by Sephadex G-25 gel filtration (protein, UniProt P68082 2-154, looked up)
Myoglobin: GLSDGEWQQVLNVWGKVEADIAGHGQEVLIRLFTGHPETLEKFDKFKHLKTEAEMKASEDLKKHGTVVLTALGGILKKKGHHEAELKPLAQSHATKHKIPIKYLEFISDAIIHVLHSKHPGDFGADAQGAMTKALELFRNDIAAKYKELGFQG
[2]; 100 mM phosphate buffer with EDTA, pH 7.4, 25° C.
  BRC of myoglobin reaction with nitrite: 2.9 ± 0.2 M⁻¹ s⁻¹

B2: neuroglobin: heme containing, monomeric, 16.9 kDa protein; literature values of the background section (protein, listed as Homo sapiens)
chain: MERPEPELIRQSWRAVSRSPLEHGTVLFARLFALEPDLLPLFQYNCRQFSSPEDCLSSPEFLDHIRKVMLVIDAAVTNVEDLSSLEEYLASLGRKHRAVGVKLSSFSTVGESLLYMLEKCLGPAFTPATRAAWSQLYGAVVQAMSRGWDGE
[3]; 20° C.
  oxygen affinity P50: 1-2 mmHg
[3]; after disulfide bond formation
  oxygen affinity P50: ~1 mmHg
[3]; before disulfide bond formation
  oxygen affinity P50: about 9 mmHg

B3: mouse neuroglobin: deoxy mouse neuroglobin of a cited study (Petersen et al., 2008) (protein, UniProt Q9ER97 1-151, looked up)
Neuroglobin: B2 chain with P6S, A15V, D37S, C46G, A90T, K102R, A124D, A131T, Q135R
[4]
  apparent second-order rate constant: 5.1 ± 0.4 M⁻¹ s⁻¹

B4: WT SS: recombinant wild-type human neuroglobin (SEQ ID NO: 8), as purified with the C46-C55 disulfide bond formed (protein, listed as Homo sapiens)
chain: B2 chain
modifications: C46-C55 disulfide
[5]
  kon of NO for the ferrous Ngb heme: 10^8 M^−1 s^−1
[6]
  Kd: 6.2 ± 2.1 mM
[7]
  midpoint redox potential of the C46/C55 thiol/disulfide couple: −194±3 mV
[1]
  inhibition of respiration (cyanide = 100%): 78±6%
  inhibition of respiration, incubated alone (in words): No significant inhibition
[2]; 1 mM nitrite
  relative percentage of the total absorbance change (Soret peak 425 nm) in the first 60 minutes: 38%
[2]; 10 mM nitrite, 10 μM deoxy-Ngb, 3 mM dithionite, pH 7.4, 100 mM phosphate buffer
  calculated BRC in the presence of dithionite: 0.11 ± 0.01 M⁻¹ s⁻¹
[2]; nitrite 0.25-20 mM, 100 mM phosphate buffer, 25° C.
  second-order bimolecular rate constant from linear fit of kobs versus nitrite concentration: 0.12 ± 0.02 M⁻¹ s⁻¹
[2]; pH 6.5-8.0
  acceleration of the reaction for each pH unit decrease: 10 fold
  slope of linear fit, order of rate dependence on [H^+]: 0.96
[2]; pH 7.4, 25° C., 10 μM deoxy-Ngb, 10 mM nitrite, no dithionite
  instantaneous bimolecular rate constant (BRC) of reaction of nitrite with Ngb: 0.12 ± 0.02 M⁻¹ s⁻¹
[2]; pH 7.4, 37° C.
  instantaneous bimolecular rate constant (BRC) of reaction of nitrite with Ngb: 0.26 ± 0.02 M⁻¹ s⁻¹
SHSY5Y cells
  extent of respiration inhibition compared to cyanide: about 15%
[8]
  BRC of nitrite ferric heme reduction: 0.0005 ± 0.0005

B5: WT SH: wild-type human neuroglobin without disulfide bond, cysteines reduced by incubation with 10 mM DTT (protein, UniProt Q9NPG2 1-151, looked up)
Neuroglobin: B2 chain
modifications: cysteines reduced with DTT
notes: wild-type human neuroglobin without disulfide bond, cysteines reduced by incubation with 10 mM DTT
[6]
  Kd: 12.6 ± 3.3 mM
[2]; 1 mM nitrite
  relative percentage of the total absorbance change (Soret peak 425 nm) in the first 60 minutes: 20%
[2]; cysteines reduced with 10 mM DTT, 25° C., pH 7.4
  rate of nitrite reduction after reduction of the disulfide bond: 0.062 ± 0.005 M⁻¹ s⁻¹
[2]; relative to oxidized wild type, 25° C., pH 7.4
  slowing of nitrite reduction rate by reduction of the disulfide bond: about 2 fold
[8]
  BRC of nitrite ferric heme reduction: 0.0002 ± 0.0005
[9]
  rate of iron-nitrosyl-Ngb / NO formation by EPR (in words): slowed the rate of iron-nitrosyl-Ngb formation

B6: H64L: stable five-coordinate mutant of human neuroglobin, His64 to Leu substitution, SEQ ID NO: 9 (protein)
chain: B2 chain with H64L
SHSY5Y neuronal cells
  cGMP levels (in words): significantly increased
[6]
  Kd: 0.17 ± 0.08 mM
[10]
  rate of NO detected in gas phase (in words): increased
[10]; 30 μM protein, nitrite 10-1000 μM
  NO generation with increasing amounts of nitrite (in words): a readily proportional NO generation response was observed
[1]
  inhibition of respiration (cyanide = 100%): 96±2%
[2]; 100 μM nitrite, excess dithionite, relative to wild type
  BRC higher than the wild type Ngb: approximately 2000 fold
[2]; 1 mM nitrite
  relative percentage of the total absorbance change (Soret peak 425 nm) in the first 60 minutes: 100%
[2]; 1 mM nitrite, pH 7.4
  time to end point of the reaction (in words): reached the end point in the first minute
[2]; nitrite 10-1000 μM, 25° C., pH 7.4
  BRC from linear fit of kobs versus nitrite concentration (stopped-flow): 259 ± 8 M⁻¹ s⁻¹
[2]; pH 6.5 and 25° C.
  rate of nitrite reaction at acidic pH: above 2,500 M^−1 s^−1
[2]; relative to wild type
  nitrite reduction to NO, faster than wild type neuroglobin: approximately 2000 times
SHSY5Y cells
  extent of respiration inhibition compared to cyanide: ~40%
[8]
  BRC of nitrite ferric heme reduction: 0.032 ± 0.002
[9]
  completion of iron-nitrosyl formation by EPR (in words): almost complete in one minute
  rate of iron-nitrosyl-Ngb / NO formation by EPR (in words): dramatically increased the rate of NO formation

B7: C46A: recombinant human neuroglobin mutant with cysteine 46 replaced by alanine (protein, UniProt Q9NPG2 1-151, looked up, variant C46A)
Neuroglobin: B2 chain with C46A
[2]
  rate of nitrite reduction (in words): slowed down the rate of nitrite reduction to similar rates observed with Ngb having fully reduced cysteines

B8: C55A: recombinant human neuroglobin mutant with cysteine 55 replaced by alanine, six-coordinate (protein, UniProt Q9NPG2 1-151, looked up, variant C55A)
Neuroglobin: B2 chain with C55A
[6]
  Kd: 30.1 ± 4.5 mM
[10]
  rate of NO detected in gas phase (in words): significantly decreased
[1]
  inhibition of respiration (cyanide = 100%): 62±4%
[2]; 1 mM nitrite
  relative percentage of the total absorbance change (Soret peak 425 nm) in the first 60 minutes: 18%
[2]
  rate of nitrite reduction (in words): slowed down the rate of nitrite reduction to similar rates observed with Ngb having fully reduced cysteines
[8]
  BRC of nitrite ferric heme reduction: 0.0002 ± 0.0005

— US9114109B2, “Five-coordinate neuroglobin and use thereof as a blood substitute” (University of Pittsburgh—Of the Commonwealth System of …, priority 2009, dated 2015)
